Experimental findings from the DeepSol protein solubility set are described below.

This data set in a line: soluble on expression in E. coli; label from the status in PepcDB or PDB records.
For the sequence “MAALIRNLGARAAVAALSAKHVVPAAGSTALRMASTTPVEPKKADKPTVRQPDAVARSHLSDFGRYVAECLPKYVQKVQLTAGDELEVLIAPEGVVPVLQFLKDHHQAQFTNLVDIAGVDVPCRKNRFEVVYNLLSLRYNSRIRVKTYTDELTPLDSACEVHKAANWYEREIWDMYGVFFANHPDLRRILTDYGFEGHPQRRDFPLSGYVELRYDDEKKRVVCEPLELAQEFRKFDLSAPWEQFPNFRNANPPAEVVPPQAPAKK”, the “soluble on expression in E. coli” value was “not soluble”. For “MGNCLFGGLGDEEEDLLIKVIKSDGGVLEFYSPVTAGFVSHGFSGHALFSAVDLLWKPLAHDHLLVPGQSYYLFPNIVSDELKTFVGSCHVRSNSESLSAITPYRMSLDYNHRVLKRSYTDVFSRNSHIRTRQKEKKTRRRRTSSKGAIWKVNLIINTEELLQILSEDGRTNELIESVRAVAKGETSSITSSSSENFLSVVQT”, the “soluble on expression in E. coli” value is given as “soluble”. Turning to “DKEWNEKELQKLHCAFASLPKHKPGFWSEVAAAVGSRSPEECQRKYMENPRGKGSQKHVT”, the “soluble on expression in E. coli” value was “soluble”.

As for “MTKKYLTFDCYGTLINTEPLYQWVANLGLAVGLDPLTVRKAYATYEDDPASVNPYLDYSTLVRADLKHLDRLFEQRHFFESHYVECLEVQRHLLPYADVIPTLTAWQQLGYQLIIMSNSSWDIMPANIAALKVSFTAVVTAEDIQAYKPALAFFETVQERFKLTADNHWHIARGYESDVVPASAMQWPMIWINRDQRQPTSSERPTHMVTDLAAVKQWVN”, the “soluble on expression in E. coli” value is “not soluble”. Take “MDQNVPISKKLWNIVRFLLYMIRKGVSKNKLIADFNATLKRGKNLMFHQRRRVHAGSTASAALNATSATASSRQEYEFSCSNTPNYSFPFSNMAFMRKKSHNNLFTCGQTPQTLDDDVAAARAVLELLNGVGEKGNVTPADLTVALSPYFPGFGQTPLVRPLRVTDSPFPLTPENGDVANGHVDKAADDFIKKFYKNLNQQKKMIEFS”: the “soluble on expression in E. coli” value is “not soluble”. Turning to “MSAQDFLVELGTEELPPKALASLGDAFLAGIEKGLQAAGLNYTGKQVYAAPRRLAVLIRQLDVQQPDRSINIDGPPLQAAFNAEGEPTQAALGFAKKCGVELAEIDQSGPKLRFSQHIPGKATVGLLPTIVEDSLNDLPIPKRMRWAASREEFVRPTQWLVMLLGDQVVDCTILSQKAGRESRGHRFHHPENVLITTPANYVEDLRKAYVLADFAERRELISKRTAELAMQQEGTAIVPPALLDEVTALVEWPVPLVCSFEERFLEVPQEALITTMQDNQKYFCLLDSEGKLLPRFITVANVESRDPKQIVQGNEKVVRPRLTDAEFFFKQDKKQPLETFNERLKNVVFQAQLGTVYDKAERVSRLAAFIAPLIGGDAQRAGRAGLLSKCDLATEMVGEFPEMQGVAGYYYALNDGEPEDVALALNEQYMPRGAGAELPQTLTGAAVAIADKLDTLVGIFGIGMLPTGSKDPYALRRAALGVLRILIEKQLDLDLTGAVEFAVKQFGAKIKAPGLAEQVLEFIFDRLRARYEDEGIDVATYLSVRALQ”, the “soluble on expression in E. coli” value is reported as “not soluble”. In the case of “MGSDKIHHHHHHMAATNYSQTIKNDTKDFITTAILQLLGIQKTFEKPKNLAQLTVSNVCKRAGVSRMAFYRNFESIDQVIYQYYQPQISQSFEIIRQNVSASSKIENQLKFFEEFKDDLFLSESQGYEPIIRQIYIEEIEKFYEKTNDEYFITFVANGVYALWRKWLMNGQDKSIEEIHELIRKIVTI”, the “soluble on expression in E. coli” value is reported as “not soluble”. With “VTPSEGNAPLPELHNTVVVAAFEGWNDAGDAAGDAVAHLAASWQALPIVEIDDEAYYDYQVNRPVIRQVDGVTRELQWPAMRISHCRPPGSDRDVVLMCGVEPNMRWRTFCDELLAVIDKLNVDTVVILGALLADTPHTRPVPVSGAAYSAASARQFGLQETRYEGPTGIAGVFQSACVGAGIPAVTFWAAVPHYVSHPPNPKATIALLRRVEDVLDVEVPLADLPAQAEAWEREITETIAEDHELAEYVQTLEQHGDAAVDMNEALGNIDGDALAAEFERYLRRRRPGFGR”, the “soluble on expression in E. coli” value is “soluble”. “MGSDKIHHHHHHMLNKRAQILLKTLVERYISEGQPVGSRSLSKFSGLDLSAATIRNVMADLEDMGLVASPHASAGRIPTHQGYRFFVDTLLVVKPLDVIEIHQLQDQLHPDNPSRLINSASQLLAELTRFAGVVVSPKRNSAIFRYIEFMSLSEKRVLLIIVTPEGDVQNRVLFTDRNYSQSELTEAANFINHNYAGCAIDEIRTRLQSELKQLRQDMTSLMTAAIDAGDAAIRENSEAVIVAGERKLLDVQDLSSNMASLKKLFDLFERKTALLQLLEFSRKAEGVQIFIGEECGVVTMDEFSVVTAPYRVDGKMVGTVAVIGPTRMAYERVIPVVDMTARLLSSALSLH”: the “soluble on expression in E. coli” value is given as “not soluble”. Consider “MGSDKIHHHHHHALKKIYPHATNVSWSQQGNYYVASFTQNGFEKEVWMNGNAQWVMTNTDLQTTDQLTPNVYNDFTLSPYAMWTATNVNLIEFPKRTTLYVITVNLNNSSATKQLFYTLNGRLLQTRDVSYINPTLSPGIFEF”, for which the “soluble on expression in E. coli” value was “not soluble”. Consider “MGSDKIHHHHHHMNKDFTFTIKSIRLDEDYHPSDSTRITTNFANLARGSYRQANLRNALKMIDNSFNALANWDNPKGDRYSVELEIISVDMDIEGSGKTFPSIEILKTNIVDHQTNQRIEGIVGNNFSSYVRDYDFSVLLQAHNKDQPNFSIPDNFGELHGKLFQYFVNSNAYKQNFKKTPVICLSVSDNKTYHRTENQHPVLGVEYQPNESSLTEQYFKKMGLQVRYFMPPNSVAPLAFHFFGDLLNDYTNLELISTISTMGTFQKIYRPEIYNANAAAGKSYQPNLKNLDHSLTQIVYDREERSKLANEQGKFAEKHFIKPYQTVLEQWSANYV”, for which the “soluble on expression in E. coli” value was “not soluble”. Turning to “MGSDKIHHHHHHMALLDIRNLCIEIETPKGRVKIIDNVNLTLNEGEICGLVGESGSGKSLIAKVICNAIKDSWIITADRFRFDDVELLKLNPKKRRKLVGKEISMIYQEPLASLDPSRKIGQQLIQSIPSWTFKGRWWQWFGWKKRRAIELLHRVGVKDHKDIMQSYPHEVTEGEGQKIMIALAIANQPRLLIADEPTNSLESMTKVQIFRLLASMNQNQGTSILLVSNDINSISAWCDSFSVLYCGQNAESGSKENILENPHHPYTRALLHSIPDFKQPLVHKSRLSTLKGAVPLLEGMPIGCRLGPRCPFAQKECIRKPTAQRIKQHEFFCHFPINLKESQRREKEMETGPLVVNTTK”, the “soluble on expression in E. coli” value was “not soluble”. Consider “MSPDFLVTHSGGFHADELLSSVILTRLFPQARLIRSRAPEWITPAPGRIIYDVGGAYDPAAGIFDHHQRGAPQRDDGQPYSSFGLIWKHYGREYLAASGLPDHHVEALHAAFDTGFVLPIDLTDNGALSPSGPLAGLMLPALLETLKPVFDEAEPAADDRAFHAALAIARSFVDAGIAQRAAKLRAEAIVYRAIGDAGQGRILELPRGMPFRPAIVKAGADHLLFVVHPREKDWCVTGIRRAEDGFELRADLPAAWAGLTNGELEAVCGIEGASFCHNGRFVAAAKTRDAALAMAELAVQEALSIGVLEHHHHHH”, for which the “soluble on expression in E. coli” value was “soluble”.

For “MSSLHLDALHWSPDASTELLRGVHLEVPAGSFVGLIGPNGSGKTSLLRCAFRYARPQRGRVVLDGDDLWRQPPRWAARRIAVVLQEFPEDFGLAVEDVVAMGRTPHKGLFDGHGADDRQRVRQALLQVGLEGRAASPFASLSGGEKQRALLARALVQEPRLLILDEPTNHLDPRYQLELLRLLRSLGLSTLASFHDLNLAAAFCDRLYVLDGGRIVAQGTPTEVLDADLLWRVFGVRALVDRHPLADHPR”, the “soluble on expression in E. coli” value is “not soluble”. Turning to “MAHHHHHHSLDSLGAINKIQDFLQKQEYKTLEYNLTTTEVVMENVTAFWEEGFGELFEKAKQNNNNRKTSNGDDSLFFSNFSLLGTPVLKDINFKIERGQLLAVAGSTGAGKTSLLMMIMGELEPSEGKIKHSGRISFCSQFSWIMPGTIKENIIFGVSYDEYRYRSVIKACQLEEDISKFAEKDNIVLGEGGITLSGGQRARISLARAVYKDADLYLLDSPFGYLDVLTEKEIFESCVCKLMANKTRILVTSKMEHLKKADKILILHEGSSYFYGTFSELQNLQPDFSSKLMGCDSFDQFSAERRNSILTETLHRLSLEGDAPVSWTETKKQSFKQTGEFGEKRKNSILNPINSIRKEG”, the “soluble on expression in E. coli” value was “soluble”.

In the case of “MGSDKIHHHHHHMTLEQLLMFNTVALAGSLKAASDKLHKTQPAISQSIKQLESQLDVVLFDRQGYRLALTQEGRKLLQYAQRVLNEAQEMRQVAKHLAIGNEASITLAFEASFNLARILPMLERTQLEFPHTQIILKQEYLTGALEALNQGKADIAISAGGIESMRSNHFELGFLFSGSLLDVASPRLLSRYPSLSHVKELVNEYQIVIQDTGTGTANIEFGVQAGQRRWYVNDFYTKKMLIQSGMGWGKLPYYMVEEALANGSLHPLELKERQNLIQLDYYVMRRPQSPLGPVAQALWENLVQLATKQS”, the “soluble on expression in E. coli” value is “not soluble”.

Turning to “MPNDVDNTKITLSLGKCGYLPQDVRTMTKFDKNTKQIRTFAFVEFSNRETAEQWMTDYEGWLTLDDGRTLAVEYAKGDPAAGSGNKGDDWICAHCSMNNFVKRQTCFKCEISKDQSMELEKLGAHMVGMTPCDTLLIRGLPDGINNSLIFDSLGALVCLSSISMIKLSESKRFAYLQMKSADEAKMLLNLTYKSPIRIKDKDVQVSWCRDSMSKLIQQQMTMLTAGPGKNSVATGSLAQGNMTGAEIAAAALSKANAVRQASQQVGQIMTGLPAPAANMIPPNFSVPPPNLSVPPPMQATQPEHQNGVIGMTQTPKGLLPRYLPPNPLTFAHDPNLGYYVDPITKFCYDSATGYYFNNATSQWCNWDLTHHTYFPVETPAVINSADPEEEKMKKNEEGPKTAQDLVKDMAKWAKRQEKDKKKVQISIKGKETKGIELKNVFSNEKQKRIAQTAALFDDDEEEDQEEEVRGRRSEEPSTSSSFSSVPLAPRKSTLQDVRDAMERALYDETKKTCMLCKRAFSDVEVLRKHVEKSDLHRNNLEAKRAEWGRETAAKLQEEEEDASAPDLPKIVYRDRAKERRRQFGIDSTGYAFDVMGGPPGPTSVRHEETIRKVSEEASKRPLDESNIGNRLLKSMGWKEGQGVGKHAQGIVNPIEAERFVQGAGLGAAGSKMRHGAEASHKEKTRQALYSRYHDA”, the “soluble on expression in E. coli” value is on record as “not soluble”. To “MELPRAFGLLLHPTSLPGPYGVGVLGREARDFLRFLKEAGGRYWQVLPLGPTGYGDSPYQSFSAFAGNPYLIDLRPLAERGYVRLEDPGFPQGRVDYGLLYAWKWPALKEAFRGFKEKASPEEREAFAAFREREAWWLEDYALFMALKGAHGGLPWNRWPLPLRKREEKALREAKSALAEEVAFHAFTQWLFFRQWGALKAEAEALGIRIIGDMPIFVAEDSAEVWAHPEWFHLDEEGRPTVVAGVPPDYFSETGQRWGNPLYRWDVLEREGFSFWIRRLEKALELFHLVRIDHFRGFEAYWEIPASCPTAVEGRWVKAPGEKLFQKIQEVFGEVPVLAEDLGVITPEVEALRDRFGLPGMKVLQFAFDDGMENPFLPHNYPAHGRVVVYTGTHDNDTTLGWYRTATPHEKAFMARYLADWGITFREEEEVPWALMHLGMKSVARLAVYPVQDVLALGSEARMNYPGRPSGNWAWRLLPGELSPEHGARLRAMAEATERL” belongs “soluble”.

Consider “MGSDKIHHHHHHMNFDFDLPAKALFRAMPICRENTRFNIDGVLIDPDPNGGAWLVATDGKGMLVQYDPDTKVPEKCVVKVSAAWLTETRFDYDMSLIGDLNDIHWCDTRLEFSKDTMTAMSSDFDIAHCLAEAGPDVFCQIRYNPISFPDWRKALDTSANTSELARPVERQTALDTGYLTDLIGWSRGFQVNPAPAGHARLISFVGEPNTFAVLMPMVADATDPLPPLLERAGRADLIQGPQRAAE”, for which the “soluble on expression in E. coli” value is on record as “not soluble”.
